Assay results from US7429563B2, “Peptide carrier for drug delivery” (The Board of Trustees of the University of Illinois, priority 2004, dated 2008).
“Also recorded” adds a separate entry of the source.

Legend:
BLMVEC [1] = assay: MPO uptake and localization by confocal immunostaining; type: cell-based, bovine; details: for MPO staining (localization): 30 min 37° C.
Protocol: FIG. 3A-FIG. 3E: Albumin induces the endocytosis of MPO in endothelial cells. BLMVEC grown on glass coverslips were incubated with buffer C for 12 h. Cells were then incubated with buffer C containing 25 nM MPO alone or in combination with Alexa-594 BSA (50 μg/ml) and unlabeled BSA (1 mg/ml) for 30 min at 37° C. Cells were washed 3×, fixed with 4% PFA in HBSS for 30 min at 22° C., and blocked with 5% goat serum in HBBS containing 0.1% Triton X-100 (blocking buffer) for 30 min at 22° C. After washing, the cells were incubated with anti-MPO Ab diluted (1:1000) in blocking buffer at 4° C. overnight. After washing 2×, cells were incubated with Alexa-488 labeled (green) secondary Ab in blocking buffer for 60 min at 4° C. Confocal images were obtained as described in Methods. […] There was a marked co-localization of […] (green) and Alexa-594 BSA (red) in merged image (yellow; right). FIG. 3B: Albumin induces the co-localization of MPO with cholera toxin subunit B (CTB) in endothelial cells. BLMVEC were grown as described in FIG. 3A. Cells were incubated with Alexa 488-CTB; (20 ug/ml), MPO (25 nM), and BSA (1 mg/ml) in buffer C for 30 min at 37° C. After this, cells were washed, fixed, permeabilized, and stained with anti-MPO Ab and AlexaA594 labeled secondary antibody. Cells were visualized by confocal microscopy after mounting. Confocal images of CTB (green-left panel) and anti-MPO Ab staining (red-middle panel) in vesicles are shown. […] There was marked merging in vesicles in the YZ projection image (far left panel) and single frame (X-Y) or single line (Y-Z and X-Z) images (left panel) observed in the presence of albumin compared to the green CTB-positive/MPO negative vesicles observed in the absence albumin (right and far right panels). […]
Immunostaining: Cellular localization of MPO, albumin, CTB (a caveolae marker), and caveolin-1 was determined by confocal microscopy (Minshall et al., J. Cell Biol., 150:1057-1069 (2000); John et al., Am. J. Physiol. Lung Cell Mol. Physiol., 284:L187-L196 (2003)). […] MPO uptake in BLMVEC was determined in the presence or absence of albumin or CTB. […]

BLMVEC monolayers = assay: Transendothelial 125I-MPO permeability, Transwell filters; type: cell-based, bovine
Protocol: FIG. 2A-FIG. 2C: Albumin increases the binding of ^125I-MPO to endothelial cell surface. The binding of ^125I-MPO to BLMVEC was measured as described in Example 1. Results are shown as mean SEM of three separate experiments made in a triplicate binding assay. *, indicates difference from control (p<0.05); **, (p<0.001) different from control (i.e., binding was determined in the presence of 5 mg/ml γ-globulin). […] FIG. 2B: Effects of albumin on time course transendothelial transport of MPO. BLMVEC grown on microporous Transwell filters were used to determine transendothelial transport of MPO as described in Example 1. […] The transendothelial ^125I-MPO clearance rate was calculated as described (24, 27). *, indicates difference from control or CD-treated group (p<0.001). […] Lung preparations were perfused at 37° C. with Krebs-albumin solutions at the indicated concentrations; MPO PS (μl/min/g wet lung) was determined by perfusing ^125I-MPO for 10 min, and removing vascular tracer with Krebs for 6 min and bound tracer with cold (12° C.) acetate buffer (pH 4.5) for 3 min. ^125I-MPO PS increased 2-fold upon increasing [BSA] from 0.05 to 0.4 g/100 ml. […]
Transendotlielial ^125I-MPO permeability: Transendothelial permeability of ^125I-MPO in BLMVEC monolayers was determined using Transwell filter units (24, 27). […]

HSA = molecular target: T1, HSA (Homo sapiens, UniProt P02768); assay: 125I-HSA binding to MPO peptides immobilized on nitrocellulose (dot-blot); details: immobilized peptide
T1 construct: purchased Sigma (St. Louis, Mo.)
Protocol: ^125I-labeling and binding of proteins: HSA and MPO were labeled with ^125I using IODO-GEN reagent from Pierce (Rockford, Ill.). ^125I HSA binding to the MPO peptides was determined by dot-blot analysis. Peptides were immobilized on nitrocellulose membranes and non-specific binding was blocked with bovine γ-globulin (2 mg/ml in PBS) for 1 h at 22° C. Membranes were washed 2× with PBS and incubated with ^125I-labeled HSA (0.3 pM) for 2 h at 22° C. Membranes were then washed 4× with PBS containing 0.05% Tween-20 (PBST) and autoradiography was performed. In some experiments, the membranes were directly counted to determine the membrane-associated radioactivity.
Peptides were immobilized on nitrocellulose membranes and then incubated with 1 ml of 0.3 μM ^125I-HSA in PBS for 2 h. Other details were described in Example 1. Non-specific binding was determined by incubating membranes with ^125I-HSA in the absence of any peptides. Results are shown mean±S.E. for three separate experiments made in triplicate.

albumin = assay: Albumin binding of ELKSLNPRWDGE, albumin from a variety of sources; details: e.g., human, porcine, murine
lung microvessels = assay: Pulmonary vascular 125I-MPO permeability x surface area (PS), isolated-perfused lung; design: species or system rat
Protocol: (§1) FIG. 2A-FIG. 2C: Albumin increases the binding of ^125I-MPO to endothelial cell surface. The binding of ^125I-MPO to BLMVEC was measured as described in Example 1. Results are shown as mean SEM of three separate experiments made in a triplicate binding assay. *, indicates difference from control (p<0.05); **, (p<0.001) different from control (i.e., binding was determined in the presence of 5 mg/ml γ-globulin). […] FIG. 2B: Effects of albumin on time course transendothelial transport of MPO. BLMVEC grown on microporous Transwell filters were used to determine transendothelial transport of MPO as described in Example 1. To study the methyl-B-cyclodextrin (CD) effect, luminal chamber was incubated with 5.0 mM CD for 20 min prior to measuring ^125I-MPO permeability. […] The transendothelial ^125I-MPO clearance rate was calculated as described (24, 27). *, indicates difference from control or CD-treated group (p<0.001). […] Lung preparations were perfused at 37° C. with Krebs-albumin solutions at the indicated concentrations; MPO PS (μl/min/g wet lung) was determined by perfusing ^125I-MPO for 10 min, and removing vascular tracer with Krebs for 6 min and bound tracer with cold (12° C.) acetate buffer (pH 4.5) for 3 min. ^125I-MPO PS increased 2-fold upon increasing [BSA] from 0.05 to 0.4 g/100 ml. […]

BLMVEC [2] = assay: 125I-MPO binding to endothelial cell surface; type: cell-based, bovine; details: increasing BSA 1-50 mg/ml in binding buffer; 4° C., 1 h
Protocol: as §1

For “methyl-β-cyclodextrin [CD, reference compound]”, the “effect on albumin-induced MPO uptake” value (BLMVEC [1]; 5.0 mM CD for 20 min at 37° C.) was “prevented the albumin-induced MPO uptake” and the “effect on transport of 125I-MPO in the presence of albumin” value (BLMVEC monolayers; CD 5.0 mM for 20 min) was “prevented the transport”.

In the case of “GLATELGSLNPGWDGEGLYQEAGGIVGAMV [MPO-MT-peptide, mutant of MPO-WT-peptide, K and R replaced with G]”, the “binding to HSA (in words)” value (HSA) is reported as “failed to bind”.

With EARKIV the “binding to HSA (in words)” value (HSA) was “no binding; also recorded: failed to bind”.

With ELKSLNPRWDGE the “ability to bind albumin from a variety of sources” value (albumin) was “able to bind to albumin from any of a variety of sources”.

B1: MPO: MPO purified from human PMNs (Calbiochem), 125I-labeled for binding and permeability (protein, listed as Homo sapiens)
chain: MGVPFFSSLRCMVDLGPCWAGGLTAEMKLLLALAGLLAILATPQPSEGAAPAVLGEVDTSLVLSSMEEAKQLVDKAYKERRESIKQRLRSGSASPMELLSYFKQPVAATRTAVRAADYLHVALDLLERKLRSLWRRPFNVTDVLTPAQLNVLSKSSGCAYQDVGVTCPEQDKYRTITGMCNNRRSPTLGASNRAFVRWLPAEYEDGFSLPYGWTPGVKRNGFPVALARAVSNEIVRFPTDQLTPDQERSLMFMQWGQLLDHDLDFTPEPAARASFVTGVNCETSCVQQPPCFPLKIPPNDPRIKNQADCIPFFRSCPACPGSNITIRNQINALTSFVDASMVYGSEEPLARNLRNMSNQLGLLAVNQRFQDNGRALLPFDNLHDDPCLLTNRSARIPCFLAGDTRSSEMPELTSMHTLLLREHNRLATELKSLNPRWDGERLYQEARKIVGAMVQIITYRDYLPLVLGPTAMRKYLPTYRSYNDSVDPRIANVFTNAFRYGHTLIQPFMFRLDNRYQPMEPNPRVPLSRVFFASWRVVLEGGIDPILRGLMATPAKLNRQNQIAVDEIRERLFEQVMRIGLDLPALNMQRSRDHGLPGYNAWRRFCGLPQPETVGQLGTVLRNLKLARKLMEQYGTPNNIDIWMGGVSEPLKRKGRVGPLLACIIGTQFRKLRDGDRFWWENEGVFSMQQRQALAQISLPRIICDNTGITTVSKNNIFMSNSYPRDFVNCSTLPALNLASWREAS
modifications: 125I label
B1 was tested, and the “MPO staining (localization)” value (BLMVEC [1]; 25 nM MPO plus 1 mg/ml BSA) was “markedly co-localized with albumin-containing vesicles”, the “MPO staining (localization)” value (BLMVEC [1]; 25 nM MPO, absence of albumin) was “observed only on the cell surface” and the “MPO PS at higher BSA concentrations” value (lung microvessels; BSA 0.25 and 0.4 g/100 ml) was “did not increase further”. The “increase in 125I-MPO PS” value (lung microvessels; upon increasing [BSA] from 0.05 to 0.4 g/100 ml) was 2 fold, the “increase of transendothelial 125I-MPO permeability” value (BLMVEC monolayers; in the presence of albumin, compared to γ-globulin (5 mg/ml)) was “more than 2 fold” and the “binding of 125I-MPO to the endothelial cell surface” value (BLMVEC [2]) was “increased the binding”.
